Results on 13 molecules are retold here after patent EP4328239A1 (dated 2024).

Positions count from the first letter of the chain named.

The target in assay [1] is T1, MAGEA1 peptide on HLA-B*44:03 (human).
T1 peptide: KVADLVGFLL
Nature of the assay: killing.

In assay [2] the target is T2, MAGEA1 peptide on HLA-B*44:03 (human).
T2 peptide: VADLVGFLL
The assay can be described thus: cytokine release.

Assay [3] concerns the target T3, MAGEA1 peptide on HLA-B*44:03 (human).
T3 peptide: ADLVGFLLLK
Nature of the assay: cytokine release.

Assay [4] concerns the target T4, MAGEA1 peptide on HLA-A*03:01 (human).
T4 peptide: SLFRAVITKK
The assay can be described thus: cytokine release.

Assay [5] concerns the target T5, MAGEA1 peptide on HLA-A*03:01 (human).
T5 peptide: ESLFRAVITK
Nature of the assay: cytokine release.

The target of assay [6] is T6, MAGEA1 peptide on HLA-A*03:01 (human).
T6 peptide: LFRAVITKK
The assay can be described thus: cytokine release.

Assay [7] has as its target T7, MAGEA1 peptide on HLA-B*44:03 (human).
T7 peptide: EEGPSTSCI
The assay can be described thus: killing.

In assay [8] the target is T8, MAGEA1 peptide on HLA-B*44:03 (human).
T8 peptide: LAETSYVKVL
Nature of the assay: luciferase kill assay, 18 h; TCR-transduced CD8+ T cells against K562-HLA-B4403-MAGE-A1, cells that express the antigen (full-length MAGEA1); two donors; full-length, on cells.

The target of assay [9] is T9, MAGEA1 peptide on HLA-B*44:03 (human).
T9 peptide: ALAETSYVKV
The assay can be described thus: cytokine release.

The target in assay [10] is T10, MAGEA1 peptide on HLA-B*44:03 (human).
T10 peptide: AETSYVKVLE
Nature of the assay: cytokine release.

Assay [11] concerns the target T11, MAGEA1 peptide on HLA-B*44:03 (human).
T11 peptide: AETSYVKVL
The assay can be described thus: cytokine release.

The target of assay [12] is T12, MAGEA1 peptide on HLA-A*29:02 (human).
T12 peptide: LVGFLLLKY
The assay can be described thus: cytokine release.

For assay [13], the target named is T13, MAGEA1 peptide on HLA-A*29:02 (human).
T13 peptide: DLVGFLLLKY
Nature of the assay: cytokine release.

The target in assay [14] is T14, MAGEA1 peptide on HLA-B*07:02 (human).
T14 peptide: RVRFFFPSL
Nature of the assay: luciferase kill assay, 18 h; TCR-transduced CD8+ T cells against K562-HLA-B0702-MAGE-A1, cells that express the antigen (full-length MAGEA1); full-length, on cells.

Assay [15] has as its target T15, MAGEA1 peptide on HLA-B*07:02 (human).
T15 peptide: ARVRFFFPSL
The assay can be described thus: cytokine release.

Assay [16] has as its target T16, MAGEA1 peptide on HLA-B*07:02 (human).
T16 peptide: RVRFFFPSLR
Nature of the assay: cytokine release.

The target in assay [17] is T17, MAGEA1 peptide on HLA-A*02:01 (human).
T17 peptide: KVLEYVIKV
Nature of the assay: luciferase kill assay, 18 h; TCR-transduced CD8+ T cells against K562-HLA-A0201-MAGE-A1, cells that express the antigen (full-length MAGEA1); full-length, on cells.

For assay [18], the target named is T18, MAGEA1 peptide on HLA-A*02:01 (human).
T18 peptide: KVLEYVIKVS
Nature of the assay: cytokine release.

Assay [19] concerns the target T19, MAGEA1 peptide on HLA-A*02:01 (human).
T19 peptide: VKVLEYVIKV
Nature of the assay: cytokine release.

Assay [20] has as its target T20, MAGEA1 peptide on HLA-A*26:01 (human).
T20 peptide: EVYDGREHSA
Nature of the assay: cytokine release.

The target in assay [21] is T21, MAGEA1 peptide on HLA-B*57:03 (human).
T21 peptide: VADLVGFLL
Nature of the assay: cytokine release.

Assay [22] deals with T22, MAGEA1 peptide on HLA-B*57:03 (human).
T22 peptide: KVADLVGFL
The assay can be described thus: cytokine release.

B1: TCR6 (TCR, V domains shown)
Valpha: QKEVEQNSGPLSVPEGAIASLNCTYSDRGSQSFFWYRQYSGKSPELIMFIYSNGDKEDGRFTAQLNKASQYVSLLIRDSQPSDSATYLCAVSSNTGKLIFGQGTTLQVKP
Vbeta: DAGVIQSPRHEVTEMGQEVTLRCKPISGHNSLFWYRQTMMRGLELLIYFNNNVPIDDSGMPEDRFSAKMPNASFSTLKIQPSEPRDSAVYFCASKWGQGAGDTQYFGPGTRLTVL
For B1, the binding result in [1], in [2] and in [3] was “recognises” in each case.

B2: TCR22 (TCR, V domains shown)
Valpha: SQQGEEDPQALSIQEGENATMNCSYKTSINNLQWYRQNSGRGLVHLILIRSNEREKHSGRLRVTLDTSKKSSSLLITASRAADTASYFCATDEGGAQKLVFGQGTRLTINP
Vbeta: DVKVTQSSRYLVKRTGEKVFLECVQDMDHENMFWYRQDPGLGLRLIYFSYDVKMKEKGDIPEGYSVSREKKERFSLILESASTNQTSMYLCATVGRGEDRGEQFFGPGTRLTVL
On to B2, for which the binding result in assay [4], in [5] and in assay [6] was “recognises” each time.

B3: TCR8 (TCR, V domains shown)
Valpha: GQNIDQPTEMTATEGAIVQINCTYQTSGFNGLFWYQQHAGEAPTFLSYNVLDGLEEKGRFSSFLSRSKGYSYLLLKELQMKDSASYLCAPSSNTGKLIFGQGTTLQVKP
Vbeta: DAGVIQSPRHEVTEMGQEVTLRCKPISGHNSLFWYRQTMMRGLELLIYFNNNVPIDDSGMPEDRFSAKMPNASFSTLKIQPSEPRDSAVYFCASSLPQETQYFGPGTRLLVL
For B3, the binding result in assay [7] is recorded as “recognises”.

B4: TCR5 (TCR, V domains shown)
Valpha: GQQLNQSPQSMFIQEGEDVSMNCTSSSIFNTWLWYKQEPGEGPVLLIALYKAGELTSNGRLTAQFGITRKDSFLNISASIPSDVGIYFCAGLRDNYGQNFVFGPGTRLSVLP
Vbeta: DGGITQSPKYLFRKEGQNVTLSCEQNLNHDAMYWYRQDPGQGLRLIYYSQIVNDFQKGDIAEGYSVSREKKESFPLTVTSAQKNPTAFYLCASRVGGFEGYTFGSGTRLTVV
B4: in assay [8], the “EC50 killing capacity (E:T ratio at which 50% of target cells were killed)” value is 0.4 E:T ratio. In addition, the binding result in assay [9], in assay [10] and in assay [11] was “recognises” in each case.

B5: TCR4 (TCR, V domains shown)
Valpha: AQSVTQLGSHVSVSEGALVLLRCNYSSSVPPYLFWYVQYPNQGLQLLLKYTSAATLVKGINGFEAEFKKSETSFHLTKPSAHMSDAAEYFCAVSNSGNTPLVFGKGTRLSVIA
Vbeta: AAGVIQSPRHLIKEKRETATLKCYPIPRHDTVYWYQQGPGQDPQFLISFYEKMQSDKGSIPDRFSAQQFSDYHSELNMSSLELGDSALYFCASSSTTGDGYTFGSGTRLTVV
In the case of B5, the binding result in assay [12] and in assay [13] was “recognises” throughout.

B6: TCR18.2 (TCR, V domains shown)
Valpha: GQQVMQIPQYQHVQEGEDFTTYCNSSTTLSNIQWYKQRPGGHPVFLIQLVKSGEVKKQKRLTFQFGEAKKNSSLHITATQTTDVGTYFCANRDNYGQNFVFGPGTRLSVLP
Vbeta: EAQVTQNPRYLITVTGKKLTVTCSQNMNHEYMSWYRQDPGLGLRQIYYSMNVEVTDKGDVPEGYKVSRKEKRNFPLILESPSPNQTSLYFCASTRTGTLPEAFFGQGTRLTVV
For the molecule B6, in assay [14], the “EC50 killing capacity (E:T ratio at which 50% of target cells were killed)” value was 20 E:T ratio. Further, the binding result in [15] and in [16] was “recognises” in each case.

B7: TCR18.1 (TCR, V domains shown)
Valpha: B6 Valpha
Vbeta: EAQVTQNPRYLITVTGKKLTVTCSQNMNHEYMSWYRQDPGLGLRQIYYSMNVEVTDKGDVPEGYKVSRKEKRNFPLILESPSPNQTSLYFCASSRTSGISYEQYFGPGTRLTVT
As for B7, the binding result in [15] and in assay [16] was “recognises” each time.

B8: TCR20 (TCR, V domains shown)
Valpha: QKEVEQNSGPLSVPEGAIASLNCTYSDRGSQSFFWYRQYSGKSPELIMFIYSNGDKEDGRFTAQLNKASQYVSLLIRDSQPSDSATYLCAVNAPRPGYSTLTFGKGTMLLVSP
Vbeta: DVKVTQSSRYLVKRTGEKVFLECVQDMDHENMFWYRQDPGLGLRLIYFSYDVKMKEKGDIPEGYSVSREKKERFSLILESASTNQTSMYLCASSLSMNTEAFFGQGTRLTVV
Take B8: the “EC50 killing capacity (E:T ratio at which 50% of target cells were killed)” value in assay [17] was 0.8 E:T ratio. The binding result in assay [18] and in assay [19] was “recognises” in each case.

B9: TCR23 (TCR, V domains shown)
Valpha: AQKVTQAQTEISVVEKEDVTLDCVYETRDTTYYLFWYKQPPSGELVFLIRRNSFDEQNEISGRYSWNFQKSTSSFNFTITASQVVDSAVYFCALSVTYTGNQFYFGTGTSLTVIP
Vbeta: DSGVTQTPKHLITATGQRVTLRCSPRSGDLSVYWYQQSLDQGLQFLIQYYNGEERAKGNILERFSAQQFPDLHSELNLSSLELGDSALYFCASSVQGQGTDTQYFGPGTRLTVL
Turning to B9, the binding result in assay [15] and in [16] was “recognises” throughout.

B10: TCR19 (TCR, V domains shown)
Valpha: AQTVTQSQPEMSVQEAETVTLSCTYDTSENNYYLFWYKQPPSRQMILVIRQEAYKQQNATENRFSVNFQKAAKSFSLKISDSQLGDTAMYFCAFISGYSTLTFGKGTMLLVSP
Vbeta: B7 Vbeta with S94R, R95T, T96S, S97H, G98P, I99Q, S100T
For B10, the binding result in [15] and in assay [16] was “recognises” throughout.

B11: TCR2 (TCR, V domains shown)
Valpha: AQKITQTQPGMFVQEKEAVTLDCTYDTSDPSYGLFWYKQPSSGEMIFLIYQGSYDQQNATEGRYSLNFQKARKSANLVISASQLGDSAMYFCASREGSARQLTFGSGTQLTVLP
Vbeta: DVKVTQSSRYLVKRTGEKVFLECVQDMDHENMFWYRQDPGLGLRLIYFSYDVKMKEKGDIPEGYSVSREKKERFSLILESASTNQTSMYLCASDSADTQYFGPGTRLTVL
In the case of B11, the binding result in assay [20] was “recognises”.

B12: TCR24 (TCR, V domains shown)
Valpha: KNQVEQSPQSLIILEGKNCTLQCNYTVSPFSNLRWYKQDTGRGPVSLTIMTFSENTKSNGRYTATLDADTKQSSLHITASQLSDSASYICVVSNNAGNMLTFGGGTRLMVKP
Vbeta: DAMVIQNPRYQVTQFGKPVTLSCSQTLNHNVMYWYQQKSSQAPKLLFHYYDKDFNNEADTPDNFQSRRPNTSFCFLDIRSPGLGDTAMYLCATSRESLGRDEQFFGPGTRLTVL
On to B12, for which the binding result in assay [4], in [5] and in [6] was “recognises” each time.

B13: TCR1 (TCR, V domains shown)
Valpha: GNSVTQMEGPVTLSEEAFLTINCTYTATGYPSLFWYVQYPGEGLQLLLKATKADDKGSNKGFEATYRKETTSFHLEKGSVQVSDSAVYFCALSGGGSYIPTFGRGTSLIVHP
Vbeta: EAGVAQSPRYKIIEKRQSVAFWCNPISGHATLYWYQQILGQGPKLLIQFQNNGVVDDSQLPKDRFSAERLKGVDSTLKIQPAKLEDSAVYLCASSSPGQLNTEAFFGQGTRLTVV
Regarding B13, the binding result in [21] and in assay [22] was “recognises” throughout.
